This is an account of results in the RNAGym collection of RNA variant scans (doi:10.1073/pnas.2313332121).

B1: TPR t1 (parent)
chain: GACCAAUCUGCCCUCAGAGCUCGAGAACAUCUUCGGAUGCAGAGGAGGCAGGCUUCGGUGGCGCGAUAGCGCCAACGUCCUCAACCUCCAAUGCAUCCCACCACAUGAUGAUGCCUGAAGAGCCUUGGUUUUUUG

Variants of B1 are the subject of the series. Nature of the series: polymerase ribozyme fitness, log enrichment relative to wild type (log ratio); higher = more active; in vitro selection for triplet polymerase activity. In a few lines:
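Mutant libraries of both subunits of a heterodimeric triplet polymerase ribozyme were PCR-built, transcribed, and selected once in triplicate, with frozen incubation at −7 °C and capture of gel-excised extended constructs on streptavidin beads before RT-PCR. Illumina sequencing of input and output libraries was filtered to genotypes with ≥10 input reads and ≥1 read per output. Fitness is the logarithm of genotype enrichment over wild-type enrichment, using inverse-variance-weighted replicate averages. The logarithm is base 2.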
In the case of GACCAAUCUGCCCUCAGAGCUCGAGAACAUCUUCGGAUGCAGUGGAGGCAGGCUUCGGUGGCGCGAUAGCGCCAUCGUCCUCAACCUCCAAUGCAUCCCACCACAUGAUGAUGCCUGAAGAGCCUGGGUUUUUUG, the “polymerase ribozyme fitness (log ratio)” value was -3.5.

As to GACCAAUCUGCCCUCAGAGCUCGAGAACAUCUUCGGAUGCAGUGGUGGCAGGCUUCGGUGGCGCGAUAGCGCCAACGUCCUCAACCUCCAAUGCAUCCCACCACAAGAUGAUGCCUGAAGAGCCUUGGUUAUUUG, the “polymerase ribozyme fitness (log ratio)” value is -2.17.

With GACCAAUCUGCCCUCAGAGCUCGAGAACAUCUUCGGAUGCAGUGGUGGCAGGCUUCGGUGGCGCGAUAGCUCCAACGUCCUCAACCUCCAAUGCAUCCCACCACAUGAUGAUGCCUGAAGAGCCAUGGAUUUUUG, the “polymerase ribozyme fitness (log ratio)” value was -4.93.

As to GACCAAUCUGCCCUCAGAGCUCGAGAACAUCUUCGGAUGCAGUGGAGGCCGGCUUCGGUGGCGCGAUAGCGCCAACAUCCUCAACCUCCAAUGCAUCCCACCACAUGAUGAUGCCUGAAGAGCCUCGGUUUUUUG, the “polymerase ribozyme fitness (log ratio)” value is -3.5.

In the case of GACCAAUCUGCCCUCAGAGCUCGAGAACAUCUUCGGAUGCAGUGGAGGUAGGCUUCGGCGGCGCGAUAGUGCCAACGUCCUCAACCUCCAAUGCAUCCCACCACAUGAUGAUGCUUGAAGAGCCUUGGUUUUUUG, the “polymerase ribozyme fitness (log ratio)” value is -5.6.

For the variant GACCAAUCUGCCCUCAGAGCUCGAGAACAUCUUCGGAUGCAGUGGAGGCAGGCUUAGGUGGCGCGAUAGCGCCAACGUCCUCAACCUCCAAUGCAUCCCACCACAUGAUGAUGCUUGAAGAGCCUUGGUUUUUUG, the “polymerase ribozyme fitness (log ratio)” value is -2.52.

Turning to GACCAAUCUGCCCUCAGAGCUCGAGAACAUCUUCGGAUGCAGUGGGGGCAGGCUUCGGUGGCGCGAUAGCGCCAACGUCCUCAACCUCCAAUGCAGCCCACCACAUGAUGAAGCCUGAAGAGCCUUGAUUUUUUG, the “polymerase ribozyme fitness (log ratio)” value was -3.6.

As for GACCAAUCUGCCCUCAGAGCUCGAGAACAUCUUCGGAUGCAGUGGAGGCAGGCUUCGGUGGUGCGAUAGCGCCAACAUCCUCAACCUCCAAUGCAUCCCACCACAUGAUGAUGCCUGAAGAGCCUAGGUUUUUUG, the “polymerase ribozyme fitness (log ratio)” value was -5.02.

On to GACCAAUCUGCCCUCAGAGCUCGAGAACAUCUUCGGAUGCAGUGGAGGCAGGCUUGGGUGGCACGAUAGCGCCAACGUCCUCAACCUCCAAUGCAUCCCACCACAUGAUGAUGCCUGAAGAGCCUUGGUUUUUUG, for which the “polymerase ribozyme fitness (log ratio)” value is -5.13.

Turning to GACCAAUCUGCCCUCAGAGCUCGAGAACAUCUUCGGAUGCAGGGGAGGCAGGCUUCGGUGGCGCGAUAGCGCCAACGUCCUCAACCUCCAACGCAUCCCACCACAUGAUGAUGCCUGAAGAGCCUUGGUUUUUUG, the “polymerase ribozyme fitness (log ratio)” value is -3.

Regarding GACCAAUCUGCCCUCAGAGCUCGAGAACAUCUUCGGAUGCAGUGGUGGCAGGCUUCGGUGGCGCGAUAGCGCCAACGUCCUCAACCUCCAAUGCAUCCCACCACUUGAUGAUGCCUGAAGAGCGUUGGUUUUUUG, the “polymerase ribozyme fitness (log ratio)” value is -4.04.

Regarding GACCAAUCUGCCCUCAGAGCUCGAGAACAUCUUCGGAUGCAGUGGAGGUAGGCUUCGGUGACGCGAUAGCGCCAACGUCCUCAACCUCCAAUGCAUCCCACCACAUGAUGAUCCCUGAAGAGUCUUGGUUUUUUG, the “polymerase ribozyme fitness (log ratio)” value was -3.66.

Take GACCAAUCUGCCCUCAGAGCUCGAGAACAUCUUCGGAUGCAGUGGAGGCAGGCUUCGGUGGCGCGAUAGCGUCAACGUCCUCAACCUCCAAUGCAUCCCACCACAUGAUGAUGCCUGAAGAGCCUUGGUUUUUUG: the “polymerase ribozyme fitness (log ratio)” value was -1.17.

Turning to GACCAAUCUGCCCUCAGAGCUCGAGAACAUCUUCGGAUGCAGUGGAGGCAGGCUUCGGUGGCGCGAUAGUGCCAACGUCCUCAACCUCCAAUGCAUCCCACCACAUGAUGAUGCCUGAAGAGCCUUGGUUUUUUG, the “polymerase ribozyme fitness (log ratio)” value was -2.1.

For the variant GACCAAUCUGCCCUCAGAGCUCGAGAACAUCUUCGGAUGCAGUGGAGGGAGGCUUCGGUGGCGCGAUAGCGCCAACGUCCUCAACCUCCAAUGCAUCCCACCACAUGAUGAUGCCUGAAGAGCCUUGGUUUUUUG, the “polymerase ribozyme fitness (log ratio)” value is -3.61.

As to GACCAAUCUGCCCUCAGAGCUCGAGAACAUCUUCGGAUGCAGUGGGGGCAGGCUUCGGUGGGGCGAUAGCGCCAACGUCCUCAACCUCCAAUGCAUCCCACCACAAGAUGAUGCCUGAAGAGCCUUGGUUUUUUG, the “polymerase ribozyme fitness (log ratio)” value was -5.98.

For the variant GACCAAUCUGCCCUCAGAGCUCGAGAACAUCUUCGGAUGCAGUGGAGGCAGGCUUCGGUGGCGCGAUAGCGCCCACGUCCUCAACCUCCAAUGCAUCCCACCACAUGAUGAUGCCUGAAGAGCCUUGGUUUUUUG, the “polymerase ribozyme fitness (log ratio)” value is -1.55.

GACCAAUCUGCCCUCAGAGCUCGAGAACAUCUUCGGAUGCAGUGGAGGCAGGCUUCGGUGGCGCGAUAGCGCGAACGUCCUCAACCUCCAAUGCAUCCCACCACAUGAUGAUGCCUGAAGAGCCUUGGUUUUUUG: the “polymerase ribozyme fitness (log ratio)” value is -2.69.

Turning to GACCAAUCUGCCCUCAGAGCUCGAGAACAUCUUCGGAUGCAGUGGAGGCAGGCUUCGGUGGCGCGAUAGCGCUAACGUCCUCAACCUCCAAUGCAUCCCACCACAUGAUGAUGCCUGAAGAGCCUUGGUUUUUUG, the “polymerase ribozyme fitness (log ratio)” value is -0.963.

For GACCAAUCUGCCCUCAGAGCUCGAGAACAUCUUCGGAUGCAGUGGAGGCAGGCUUCGGUGGCGCGAUAGCGCAAACGUCCUCAACCUCCAAUGCAUCCCACCACAUGAUGAUGCCUGAAGAGCCUUGGUUUUUUG, the “polymerase ribozyme fitness (log ratio)” value was -1.5.

Regarding GACCAAUCUGCCCUCAGAGCUCGAGAACAUCUUCGGAUGCAGUGGAGGAAGGCUUCGGUGGCGCGAUAGCGCCAACGUCCUCAACCUCUCAUGCAUCCCACCACAUGAUGAUGCCUGAAGAGCCUUGGUUUUGUG, the “polymerase ribozyme fitness (log ratio)” value is -1.26.
